What follows are binders tested against T1, FcγRIa extracellular domain with C-terminal His tag (human, UniProt P12314 16-292) (assay: SPR (Biacore), captured antibody, FcγRIa analyte; relative to GpH7-B3/GpL16-k0 = 100).
T1 construct: extracellular domain; Expressed in FreeStyle293 cells; used as analyte in Biacore; also called FcgRI; 1a; not shown: His tag at the C terminus
T1 sequence (P12314 16-292): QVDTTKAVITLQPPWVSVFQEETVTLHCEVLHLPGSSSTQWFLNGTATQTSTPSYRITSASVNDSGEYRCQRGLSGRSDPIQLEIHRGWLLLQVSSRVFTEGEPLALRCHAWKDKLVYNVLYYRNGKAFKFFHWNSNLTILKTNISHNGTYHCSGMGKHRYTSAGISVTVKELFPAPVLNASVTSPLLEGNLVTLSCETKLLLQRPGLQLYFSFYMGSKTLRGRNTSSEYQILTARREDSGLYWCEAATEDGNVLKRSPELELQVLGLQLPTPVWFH

| Binder | Ho/Con_1a |
| --- | --- |
| GpH7-B3 variant (I336_09D)/GpL16-k0 (antibody, human IgG1, kappa, Homodimerized; both H chains altered; also called Ho Ab I336_09D) heavy: not shown light: DIVMTQSPLSLPVTPGEPASISCQASESLVHSNRNTYLHWYLQKPGQSPQLLIYKVSNRFSGVPDRFSGSGSGTDFTLKISRVEAEDVGVYYCSQNTHVPPTFGQGTKVEIERTVAAPSVFIFPPSDEQLKSGTASVVCLLNNFYPREAKVQWKVDNALQSGNSQESVTEQDSKDSTYSLSSTLTLSKADYEKHKVYACEVTHQGLSSPVTKSFNRGEC | 108 % of control |
| GpH7-B3 variant (I336_13S)/GpL16-k0 (antibody, human IgG1, kappa, Homodimerized; both H chains altered; also called Ho Ab I336_13S) heavy: not shown light: DIVMTQSPLSLPVTPGEPASISCQASESLVHSNRNTYLHWYLQKPGQSPQLLIYKVSNRFSGVPDRFSGSGSGTDFTLKISRVEAEDVGVYYCSQNTHVPPTFGQGTKVEIERTVAAPSVFIFPPSDEQLKSGTASVVCLLNNFYPREAKVQWKVDNALQSGNSQESVTEQDSKDSTYSLSSTLTLSKADYEKHKVYACEVTHQGLSSPVTKSFNRGEC | 110 % of control |
| GpH7-B3 variant (H268_13S)/GpL16-k0 (antibody, human IgG1, kappa, Homodimerized; both H chains altered; also called Ho Ab H268_13S) heavy: not shown light: DIVMTQSPLSLPVTPGEPASISCQASESLVHSNRNTYLHWYLQKPGQSPQLLIYKVSNRFSGVPDRFSGSGSGTDFTLKISRVEAEDVGVYYCSQNTHVPPTFGQGTKVEIERTVAAPSVFIFPPSDEQLKSGTASVVCLLNNFYPREAKVQWKVDNALQSGNSQESVTEQDSKDSTYSLSSTLTLSKADYEKHKVYACEVTHQGLSSPVTKSFNRGEC | 110 % of control |
| GpH7-B3 variant (I336_08L)/GpL16-k0 (antibody, human IgG1, kappa, Homodimerized; both H chains altered; also called Ho Ab I336_08L) heavy: not shown light: DIVMTQSPLSLPVTPGEPASISCQASESLVHSNRNTYLHWYLQKPGQSPQLLIYKVSNRFSGVPDRFSGSGSGTDFTLKISRVEAEDVGVYYCSQNTHVPPTFGQGTKVEIERTVAAPSVFIFPPSDEQLKSGTASVVCLLNNFYPREAKVQWKVDNALQSGNSQESVTEQDSKDSTYSLSSTLTLSKADYEKHKVYACEVTHQGLSSPVTKSFNRGEC | 109 % of control |

Second part, the binder after the results:

| Ho/Con_1a | Binder |
| --- | --- |
| 110 % of control | GpH7-B3 variant (H268_09D)/GpL16-k0 (antibody, human IgG1, kappa, Homodimerized; both H chains altered; also called Ho Ab H268_09D) heavy: not shown light: DIVMTQSPLSLPVTPGEPASISCQASESLVHSNRNTYLHWYLQKPGQSPQLLIYKVSNRFSGVPDRFSGSGSGTDFTLKISRVEAEDVGVYYCSQNTHVPPTFGQGTKVEIERTVAAPSVFIFPPSDEQLKSGTASVVCLLNNFYPREAKVQWKVDNALQSGNSQESVTEQDSKDSTYSLSSTLTLSKADYEKHKVYACEVTHQGLSSPVTKSFNRGEC |
| 112 % of control | GpH7-B3 variant (H268_10E)/GpL16-k0 (antibody, human IgG1, kappa, Homodimerized; both H chains altered; also called Ho Ab H268_10E) heavy: not shown light: DIVMTQSPLSLPVTPGEPASISCQASESLVHSNRNTYLHWYLQKPGQSPQLLIYKVSNRFSGVPDRFSGSGSGTDFTLKISRVEAEDVGVYYCSQNTHVPPTFGQGTKVEIERTVAAPSVFIFPPSDEQLKSGTASVVCLLNNFYPREAKVQWKVDNALQSGNSQESVTEQDSKDSTYSLSSTLTLSKADYEKHKVYACEVTHQGLSSPVTKSFNRGEC |
| 108 % of control | GpH7-B3 variant (A330_20W)/GpL16-k0 (antibody, human IgG1, kappa, Homodimerized; both H chains altered; also called Ho Ab A330_20W) heavy: not shown light: DIVMTQSPLSLPVTPGEPASISCQASESLVHSNRNTYLHWYLQKPGQSPQLLIYKVSNRFSGVPDRFSGSGSGTDFTLKISRVEAEDVGVYYCSQNTHVPPTFGQGTKVEIERTVAAPSVFIFPPSDEQLKSGTASVVCLLNNFYPREAKVQWKVDNALQSGNSQESVTEQDSKDSTYSLSSTLTLSKADYEKHKVYACEVTHQGLSSPVTKSFNRGEC |
| 106 % of control | GpH7-B3 variant (A330_01G)/GpL16-k0 (antibody, human IgG1, kappa, Homodimerized; both H chains altered; also called Ho Ab A330_01G) heavy: not shown light: DIVMTQSPLSLPVTPGEPASISCQASESLVHSNRNTYLHWYLQKPGQSPQLLIYKVSNRFSGVPDRFSGSGSGTDFTLKISRVEAEDVGVYYCSQNTHVPPTFGQGTKVEIERTVAAPSVFIFPPSDEQLKSGTASVVCLLNNFYPREAKVQWKVDNALQSGNSQESVTEQDSKDSTYSLSSTLTLSKADYEKHKVYACEVTHQGLSSPVTKSFNRGEC |
| 103 % of control | GpH7-B3 variant (D265_10E)/GpL16-k0 (antibody, human IgG1, kappa, Homodimerized; both H chains altered; also called Ho Ab D265_10E) heavy: not shown light: DIVMTQSPLSLPVTPGEPASISCQASESLVHSNRNTYLHWYLQKPGQSPQLLIYKVSNRFSGVPDRFSGSGSGTDFTLKISRVEAEDVGVYYCSQNTHVPPTFGQGTKVEIERTVAAPSVFIFPPSDEQLKSGTASVVCLLNNFYPREAKVQWKVDNALQSGNSQESVTEQDSKDSTYSLSSTLTLSKADYEKHKVYACEVTHQGLSSPVTKSFNRGEC |
| 108 % of control | GpH7-B3 variant (H268_18N)/GpL16-k0 (antibody, human IgG1, kappa, Homodimerized; both H chains altered; also called Ho Ab H268_18N) heavy: not shown light: DIVMTQSPLSLPVTPGEPASISCQASESLVHSNRNTYLHWYLQKPGQSPQLLIYKVSNRFSGVPDRFSGSGSGTDFTLKISRVEAEDVGVYYCSQNTHVPPTFGQGTKVEIERTVAAPSVFIFPPSDEQLKSGTASVVCLLNNFYPREAKVQWKVDNALQSGNSQESVTEQDSKDSTYSLSSTLTLSKADYEKHKVYACEVTHQGLSSPVTKSFNRGEC |

Source: patent US20180155451A1 (published 2018)
